Four molecules from patent US20140087995A1 (published 2014) can be followed below.

The chains are these.
T1: rat calcitonin receptor (rat, UniProt P32214 25-516)
T1 construct: whole, on cells; Used as membranes prepared from the transfected cells; also called rCTR; rCT
T1 sequence (looked up): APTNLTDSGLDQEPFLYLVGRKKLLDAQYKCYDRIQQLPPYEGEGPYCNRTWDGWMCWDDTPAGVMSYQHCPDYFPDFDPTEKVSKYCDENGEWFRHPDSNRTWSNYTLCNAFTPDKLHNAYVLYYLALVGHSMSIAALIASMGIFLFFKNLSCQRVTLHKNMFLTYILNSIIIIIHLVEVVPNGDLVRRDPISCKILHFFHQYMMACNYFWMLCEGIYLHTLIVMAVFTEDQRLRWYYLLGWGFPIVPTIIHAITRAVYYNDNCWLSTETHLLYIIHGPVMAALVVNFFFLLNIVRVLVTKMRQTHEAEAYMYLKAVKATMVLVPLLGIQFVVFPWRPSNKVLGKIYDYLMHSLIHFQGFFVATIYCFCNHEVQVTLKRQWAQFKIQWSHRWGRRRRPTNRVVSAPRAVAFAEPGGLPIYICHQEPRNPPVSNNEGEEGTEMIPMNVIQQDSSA

T2: human calcitonin receptor (human, UniProt P30988 25-474)
T2 construct: whole, on cells; Used as membranes prepared from the transfected cells; also called hCTR; hCT
T2 sequence (looked up): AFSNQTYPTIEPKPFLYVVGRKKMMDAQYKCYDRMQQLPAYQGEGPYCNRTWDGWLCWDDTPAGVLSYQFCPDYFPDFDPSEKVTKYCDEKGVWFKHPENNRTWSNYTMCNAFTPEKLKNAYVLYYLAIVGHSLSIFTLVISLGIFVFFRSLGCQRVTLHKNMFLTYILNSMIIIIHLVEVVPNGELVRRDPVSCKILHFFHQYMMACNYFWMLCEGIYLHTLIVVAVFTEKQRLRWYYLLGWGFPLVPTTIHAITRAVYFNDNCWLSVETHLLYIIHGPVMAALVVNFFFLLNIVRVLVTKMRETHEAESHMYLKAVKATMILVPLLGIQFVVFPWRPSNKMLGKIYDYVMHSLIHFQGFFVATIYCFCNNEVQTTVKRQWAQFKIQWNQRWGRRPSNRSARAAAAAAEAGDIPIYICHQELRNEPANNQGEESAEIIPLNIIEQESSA

B1: N^ε1-[2-[2-[2-[[(4S)-4-carboxy-4-(19-carboxynonadecanoylamino)butanoyl]amino]ethoxy]ethoxy]acetyl]-[Arg17,Pro21,Pro27,Arg34]-h-amylin (peptide)
peptide: K([AEEA-γGlu-C20 diacid])CNTATCATQRLANFLRHSSPNFGAIPSSTNVGRNTY-NH2
modifications: disulfide 2-7; N-terminus assumed
SMILES: CC[C@H](C)[C@H](NC(=O)[C@H](C)NC(=O)CNC(=O)[C@H](Cc1ccccc1)NC(=O)[C@H](CC(N)=O)NC(=O)[C@@H]1CCCN1C(=O)[C@H](CO)NC(=O)[C@H](CO)NC(=O)[C@H](Cc1c[nH]cn1)NC(=O)[C@H](CCCNC(=N)N)NC(=O)[C@H](CC(C)C)NC(=O)[C@H](Cc1ccccc1)NC(=O)[C@H](CC(N)=O)NC(=O)[C@H](C)NC(=O)[C@H](CC(C)C)NC(=O)[C@H](CCCNC(=N)N)NC(=O)[C@H](CCC(N)=O)NC(=O)[C@@H](NC(=O)[C@H](C)NC(=O)[C@@H]1CSSC[C@H](NC(=O)[C@@H](N)CCCCNC(=O)COCCOCCNC(=O)CC[C@H](NC(=O)CCCCCCCCCCCCCCCCCCC(=O)O)C(=O)O)C(=O)N[C@@H](CC(N)=O)C(=O)N[C@@H]([C@@H](C)O)C(=O)N[C@@H](C)C(=O)N[C@@H]([C@@H](C)O)C(=O)N1)[C@@H](C)O)C(=O)N1CCC[C@H]1C(=O)N[C@@H](CO)C(=O)N[C@@H](CO)C(=O)N[C@H](C(=O)N[C@@H](CC(N)=O)C(=O)N[C@H](C(=O)NCC(=O)N[C@@H](CCCNC(=N)N)C(=O)N[C@@H](CC(N)=O)C(=O)N[C@H](C(=O)N[C@@H](Cc1ccc(O)cc1)C(N)=O)[C@@H](C)O)C(C)C)[C@@H](C)O
notes: Analogue of human amylin; disulfide and C-terminal amide as told for h-amylin; also called compound 78
B2: N^ε1-[2-[2-[2-[[(4S)-4-carboxy-4-(19-carboxynonadecanoylamino)butanoyl]amino]ethoxy]ethoxy]acetyl]-[His14,Arg17,Pro21,Pro27,Arg34]-h-amylin (peptide)
peptide: K([AEEA-γGlu-C20 diacid])CNTATCATQRLAHFLRHSSPNFGAIPSSTNVGRNTY-NH2
modifications: disulfide 2-7; N-terminus assumed
SMILES: CC[C@H](C)[C@H](NC(=O)[C@H](C)NC(=O)CNC(=O)[C@H](Cc1ccccc1)NC(=O)[C@H](CC(N)=O)NC(=O)[C@@H]1CCCN1C(=O)[C@H](CO)NC(=O)[C@H](CO)NC(=O)[C@H](Cc1c[nH]cn1)NC(=O)[C@H](CCCNC(=N)N)NC(=O)[C@H](CC(C)C)NC(=O)[C@H](Cc1ccccc1)NC(=O)[C@H](Cc1c[nH]cn1)NC(=O)[C@H](C)NC(=O)[C@H](CC(C)C)NC(=O)[C@H](CCCNC(=N)N)NC(=O)[C@H](CCC(N)=O)NC(=O)[C@@H](NC(=O)[C@H](C)NC(=O)[C@@H]1CSSC[C@H](NC(=O)[C@@H](N)CCCCNC(=O)COCCOCCNC(=O)CC[C@H](NC(=O)CCCCCCCCCCCCCCCCCCC(=O)O)C(=O)O)C(=O)N[C@@H](CC(N)=O)C(=O)N[C@@H]([C@@H](C)O)C(=O)N[C@@H](C)C(=O)N[C@@H]([C@@H](C)O)C(=O)N1)[C@@H](C)O)C(=O)N1CCC[C@H]1C(=O)N[C@@H](CO)C(=O)N[C@@H](CO)C(=O)N[C@H](C(=O)N[C@@H](CC(N)=O)C(=O)N[C@H](C(=O)NCC(=O)N[C@@H](CCCNC(=N)N)C(=O)N[C@@H](CC(N)=O)C(=O)N[C@H](C(=O)N[C@@H](Cc1ccc(O)cc1)C(N)=O)[C@@H](C)O)C(C)C)[C@@H](C)O
notes: Analogue of human amylin; disulfide and C-terminal amide as told for h-amylin; also called compound 84
B3: N^ε1-[2-[2-[2-[[(4S)-4-carboxy-4-(19-carboxynonadecanoylamino)butanoyl]amino]ethoxy]ethoxy]acetyl]-[Gly14,Arg17,Pro21,Pro27,Pro31]-h-amylin (peptide)
peptide: K([AEEA-γGlu-C20 diacid])CNTATCATQRLAGFLRHSSPNFGAIPSSTPVGSNTY-NH2
modifications: disulfide 2-7; N-terminus assumed
SMILES: CC[C@H](C)[C@H](NC(=O)[C@H](C)NC(=O)CNC(=O)[C@H](Cc1ccccc1)NC(=O)[C@H](CC(N)=O)NC(=O)[C@@H]1CCCN1C(=O)[C@H](CO)NC(=O)[C@H](CO)NC(=O)[C@H](Cc1c[nH]cn1)NC(=O)[C@H](CCCNC(=N)N)NC(=O)[C@H](CC(C)C)NC(=O)[C@H](Cc1ccccc1)NC(=O)CNC(=O)[C@H](C)NC(=O)[C@H](CC(C)C)NC(=O)[C@H](CCCNC(=N)N)NC(=O)[C@H](CCC(N)=O)NC(=O)[C@@H](NC(=O)[C@H](C)NC(=O)[C@@H]1CSSC[C@H](NC(=O)[C@@H](N)CCCCNC(=O)COCCOCCNC(=O)CC[C@H](NC(=O)CCCCCCCCCCCCCCCCCCC(=O)O)C(=O)O)C(=O)N[C@@H](CC(N)=O)C(=O)N[C@@H]([C@@H](C)O)C(=O)N[C@@H](C)C(=O)N[C@@H]([C@@H](C)O)C(=O)N1)[C@@H](C)O)C(=O)N1CCC[C@H]1C(=O)N[C@@H](CO)C(=O)N[C@@H](CO)C(=O)N[C@H](C(=O)N1CCC[C@H]1C(=O)N[C@H](C(=O)NCC(=O)N[C@@H](CO)C(=O)N[C@@H](CC(N)=O)C(=O)N[C@H](C(=O)N[C@@H](Cc1ccc(O)cc1)C(N)=O)[C@@H](C)O)C(C)C)[C@@H](C)O
notes: Analogue of human amylin; disulfide and C-terminal amide as told for h-amylin; also called compound 71
B4: N^ε1-[2-[2-[2-[[(4S)-4-carboxy-4-(19-carboxynonadecanoylamino)butanoyl]amino]ethoxy]ethoxy]acetyl]-[Arg17,Pro21,Pro27,His34]-h-amylin (peptide)
peptide: K([AEEA-γGlu-C20 diacid])CNTATCATQRLANFLRHSSPNFGAIPSSTNVGHNTY-NH2
modifications: disulfide 2-7; N-terminus assumed
SMILES: CC[C@H](C)[C@H](NC(=O)[C@H](C)NC(=O)CNC(=O)[C@H](Cc1ccccc1)NC(=O)[C@H](CC(N)=O)NC(=O)[C@@H]1CCCN1C(=O)[C@H](CO)NC(=O)[C@H](CO)NC(=O)[C@H](Cc1c[nH]cn1)NC(=O)[C@H](CCCNC(=N)N)NC(=O)[C@H](CC(C)C)NC(=O)[C@H](Cc1ccccc1)NC(=O)[C@H](CC(N)=O)NC(=O)[C@H](C)NC(=O)[C@H](CC(C)C)NC(=O)[C@H](CCCNC(=N)N)NC(=O)[C@H](CCC(N)=O)NC(=O)[C@@H](NC(=O)[C@H](C)NC(=O)[C@@H]1CSSC[C@H](NC(=O)[C@@H](N)CCCCNC(=O)COCCOCCNC(=O)CC[C@H](NC(=O)CCCCCCCCCCCCCCCCCCC(=O)O)C(=O)O)C(=O)N[C@@H](CC(N)=O)C(=O)N[C@@H]([C@@H](C)O)C(=O)N[C@@H](C)C(=O)N[C@@H]([C@@H](C)O)C(=O)N1)[C@@H](C)O)C(=O)N1CCC[C@H]1C(=O)N[C@@H](CO)C(=O)N[C@@H](CO)C(=O)N[C@H](C(=O)N[C@@H](CC(N)=O)C(=O)N[C@H](C(=O)NCC(=O)N[C@@H](Cc1c[nH]cn1)C(=O)N[C@@H](CC(N)=O)C(=O)N[C@H](C(=O)N[C@@H](Cc1ccc(O)cc1)C(N)=O)[C@@H](C)O)C(C)C)[C@@H](C)O
notes: Analogue of human amylin; disulfide and C-terminal amide as told for h-amylin; also called compound 76

In general, IC50 refers to the midpoint of a concentration-inhibition curve.

Numbered stars: 1 amine (or outer) side, 2 acyl side, 3 side chain; on linkers, the order of the positions; unused ones are H or OH. Bridge positions count the residues as written; N and C are the ends. Side chains are listed from the residue outwards. Ends that are not written are not given here. * marks the point of attachment. C20 diacid = O=C(O)CCCCCCCCCCCCCCCCCCC(=O)*; γGlu = O=C(O)[C@H](CCC(=O)[*:2])N[*:1]; AEEA = NCCOCCOCC(=O)O

The target in one assay is T1, rat calcitonin receptor. Description: SPA competition with 125I-calcitonin, membranes with rat calcitonin receptor (Assay VIII).
Consider B1, for which the IC50 was determined as 90.6 nM.
On the same count and under the same terms, the result for B2 reads 477 nM.
Consider B3, for which the IC50 is 44.8 nM.
The same measure, in the same setting: the result for B4 reads 38.9 nM.

Another assay has as its target T1, rat calcitonin receptor. The assay is described as follows: ratio of binding IC50 at rat calcitonin receptor to IC50 at rat amylin receptor (reference).
As for B1, the “Ratio rCT/rAmylin binding” value was 69.9.
Same read-out and setting: the result for B2 reads 94.3; that for B3, 162; that for B4, 56.8.

The next assay has as its target T2, human calcitonin receptor. Description: ratio of binding IC50 at human calcitonin receptor to IC50 at human amylin receptor (reference). How it is done: The resulting pellet was resuspended, homogenized and centrifuged (20.000 rpm, 15 min) in a buffer containing 20 mM Na-HEPES and 0.1 mM EDTA (pH 7.4, buffer 2). The resulting pellet was resuspended in buffer 2 and protein concentration was measured (BCA protein Assay, Pierce). The homogenate was kept cold during the whole procedure. The membranes were kept at −80° C. until use. The assay was performed in a 384 well Optiplate (PerkinElmer) in a total volume of 40 ul. Membranes were mixed with SPA beads. Final concentration of membranes 35 ng/μL final and SPA beads was 0.05 mg/well. Test-compounds were dissolved in DMSO and further diluted in assay buffer (50 mM Hepes, pH 7.4, 1 mM CaCl2, 5 mM MgCl₂, 0.1% OA and 0.02% Tween20). […] The final mixture was incubated with shaking at 400 rpm for 120 min at 25° C. prior to centrifugation (1500 rpm, 10 min). Samples were analyzed on TopCounter™ (Packard). The IC₅₀ was calculated using (one site binding competition analysis) GraphPad Prism5 as a measure of receptor affinity.
Membranes were prepared in the following way; the cells were rinsed with PBS and incubated with Versene for approximately 5 min before harvesting. The cells were flushed with PBS and the cell-suspension was centrifuged for 5 min at 1000 rpm. Cells were homogenized (Ultrathurrax) in a buffer containing 20 mM Na-HEPES and 10 mM EDTA (pH 7.4) and centrifuged at 20.000 rpm for 15 min. The resulting pellet was resuspended, homogenized and centrifuged (20.000 rpm, 15 min) in a buffer containing 20 mM Na-HEPES and 0.1 mM EDTA (pH 7.4, buffer 2). The resulting pellet was resuspended in buffer 2 and protein concentration was measured (BCA protein Assay, Pierce). The homogenate was kept cold during the whole procedure. The membranes were kept at −80° C. until use. Assay was performed in a 384 well Optiplate (PerkinElmer) in a total volume of 40 ul. Membranes were mixed with SPA beads.
Take B1: the “Ratio hCT/hAmylin binding” value is 60.7.
Regarding B2, the “Ratio hCT/hAmylin binding” value turned out to be 120.
Still for that read-out and setting: the result for B3 reads 32; that for B4, 80.
